system: peptide library, one residue held at a place counted from the S/T acceptor; assay: relative phosphorylation of the sub-library (ratio to the mean residue at this position); human; higher = residue favoured; conditions: F fixed; at -2
Procedure, shortened: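 Relative sub-library phosphorylation is the ratio of each sub-library's signal to the mean residue at that position. The signal came from phosphorimaging of spots on streptavidin membranes, quantified by densitometry, after purified recombinant kinases reacted with biotinylated degenerate peptide sub-libraries in 384-well plates. Reactions held 50 μM peptide and 50 μM ATP spiked with γ-32P-ATP for 90 min under kinase-specific conditions.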

Chain of CAMK1, construct: Full length (Q14012 whole entry, looked up): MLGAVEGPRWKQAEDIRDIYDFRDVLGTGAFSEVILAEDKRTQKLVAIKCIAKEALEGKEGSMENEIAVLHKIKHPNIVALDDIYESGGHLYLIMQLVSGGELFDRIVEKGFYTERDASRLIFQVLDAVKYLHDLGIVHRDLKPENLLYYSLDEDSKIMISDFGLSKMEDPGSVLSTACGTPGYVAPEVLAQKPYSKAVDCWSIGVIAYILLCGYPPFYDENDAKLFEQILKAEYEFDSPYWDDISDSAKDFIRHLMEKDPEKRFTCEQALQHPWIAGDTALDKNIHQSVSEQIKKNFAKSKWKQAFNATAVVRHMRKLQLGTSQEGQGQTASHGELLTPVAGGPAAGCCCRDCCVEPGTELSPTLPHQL
Chain of TTBK1, construct: Full length (Q5TCY1 whole entry, looked up): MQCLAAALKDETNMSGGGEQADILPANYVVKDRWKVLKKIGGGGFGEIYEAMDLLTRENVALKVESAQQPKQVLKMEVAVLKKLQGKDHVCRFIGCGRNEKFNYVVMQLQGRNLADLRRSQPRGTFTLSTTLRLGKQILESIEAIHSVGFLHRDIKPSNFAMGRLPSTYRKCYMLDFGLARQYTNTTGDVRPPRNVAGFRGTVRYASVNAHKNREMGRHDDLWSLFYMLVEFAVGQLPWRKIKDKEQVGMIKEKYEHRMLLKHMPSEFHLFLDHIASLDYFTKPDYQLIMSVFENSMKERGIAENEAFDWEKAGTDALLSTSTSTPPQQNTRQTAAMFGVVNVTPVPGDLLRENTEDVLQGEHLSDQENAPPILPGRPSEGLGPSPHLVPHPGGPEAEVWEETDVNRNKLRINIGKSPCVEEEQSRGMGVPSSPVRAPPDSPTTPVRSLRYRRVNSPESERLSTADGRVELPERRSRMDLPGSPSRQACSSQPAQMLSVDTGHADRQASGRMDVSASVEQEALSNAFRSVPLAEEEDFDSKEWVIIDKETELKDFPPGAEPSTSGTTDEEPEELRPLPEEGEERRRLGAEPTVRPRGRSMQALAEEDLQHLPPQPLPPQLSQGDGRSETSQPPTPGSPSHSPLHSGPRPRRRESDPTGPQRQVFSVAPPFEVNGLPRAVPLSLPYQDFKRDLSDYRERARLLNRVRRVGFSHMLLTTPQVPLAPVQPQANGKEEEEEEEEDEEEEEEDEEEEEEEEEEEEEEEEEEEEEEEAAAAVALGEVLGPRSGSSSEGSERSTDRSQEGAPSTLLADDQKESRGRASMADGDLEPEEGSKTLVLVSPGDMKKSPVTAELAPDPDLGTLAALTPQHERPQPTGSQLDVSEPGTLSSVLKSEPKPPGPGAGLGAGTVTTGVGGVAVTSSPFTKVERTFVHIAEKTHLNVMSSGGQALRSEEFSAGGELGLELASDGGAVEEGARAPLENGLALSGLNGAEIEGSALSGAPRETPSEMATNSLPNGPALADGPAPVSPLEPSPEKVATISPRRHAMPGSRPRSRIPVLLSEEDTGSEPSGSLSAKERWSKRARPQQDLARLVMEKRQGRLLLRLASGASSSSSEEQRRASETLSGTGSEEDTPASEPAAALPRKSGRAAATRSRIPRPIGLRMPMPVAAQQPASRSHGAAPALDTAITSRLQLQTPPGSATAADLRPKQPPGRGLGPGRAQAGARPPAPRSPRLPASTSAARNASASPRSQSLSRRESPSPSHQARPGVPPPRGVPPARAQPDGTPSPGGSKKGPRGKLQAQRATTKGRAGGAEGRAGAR
Chain of MAP3K10, construct: aa1-449 (Q02779 1-449, looked up): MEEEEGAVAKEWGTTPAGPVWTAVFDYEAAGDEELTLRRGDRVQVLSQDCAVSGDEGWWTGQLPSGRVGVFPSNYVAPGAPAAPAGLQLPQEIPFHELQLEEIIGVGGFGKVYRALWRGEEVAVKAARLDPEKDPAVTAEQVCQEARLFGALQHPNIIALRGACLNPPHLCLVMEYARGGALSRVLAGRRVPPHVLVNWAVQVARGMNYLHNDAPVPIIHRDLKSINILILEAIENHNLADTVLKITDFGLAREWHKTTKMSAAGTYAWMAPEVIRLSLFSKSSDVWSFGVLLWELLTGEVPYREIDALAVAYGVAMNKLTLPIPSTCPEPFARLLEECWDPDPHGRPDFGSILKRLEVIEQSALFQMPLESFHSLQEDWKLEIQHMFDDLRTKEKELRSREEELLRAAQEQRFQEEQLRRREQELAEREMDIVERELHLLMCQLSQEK
Chain of MOK, construct: aa1-343 (Q9UQ07 1-343, looked up): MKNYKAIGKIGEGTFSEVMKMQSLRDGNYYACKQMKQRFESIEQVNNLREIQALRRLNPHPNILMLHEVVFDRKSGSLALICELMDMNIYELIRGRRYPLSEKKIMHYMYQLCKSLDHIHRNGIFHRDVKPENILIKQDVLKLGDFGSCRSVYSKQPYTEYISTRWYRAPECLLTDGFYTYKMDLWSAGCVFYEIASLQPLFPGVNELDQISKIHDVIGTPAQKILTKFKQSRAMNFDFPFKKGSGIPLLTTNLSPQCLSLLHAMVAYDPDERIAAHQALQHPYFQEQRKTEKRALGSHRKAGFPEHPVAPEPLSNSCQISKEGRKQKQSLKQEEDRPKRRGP
Chain of EIF2AK1, construct: Full length (Q9BQI3 whole entry, looked up): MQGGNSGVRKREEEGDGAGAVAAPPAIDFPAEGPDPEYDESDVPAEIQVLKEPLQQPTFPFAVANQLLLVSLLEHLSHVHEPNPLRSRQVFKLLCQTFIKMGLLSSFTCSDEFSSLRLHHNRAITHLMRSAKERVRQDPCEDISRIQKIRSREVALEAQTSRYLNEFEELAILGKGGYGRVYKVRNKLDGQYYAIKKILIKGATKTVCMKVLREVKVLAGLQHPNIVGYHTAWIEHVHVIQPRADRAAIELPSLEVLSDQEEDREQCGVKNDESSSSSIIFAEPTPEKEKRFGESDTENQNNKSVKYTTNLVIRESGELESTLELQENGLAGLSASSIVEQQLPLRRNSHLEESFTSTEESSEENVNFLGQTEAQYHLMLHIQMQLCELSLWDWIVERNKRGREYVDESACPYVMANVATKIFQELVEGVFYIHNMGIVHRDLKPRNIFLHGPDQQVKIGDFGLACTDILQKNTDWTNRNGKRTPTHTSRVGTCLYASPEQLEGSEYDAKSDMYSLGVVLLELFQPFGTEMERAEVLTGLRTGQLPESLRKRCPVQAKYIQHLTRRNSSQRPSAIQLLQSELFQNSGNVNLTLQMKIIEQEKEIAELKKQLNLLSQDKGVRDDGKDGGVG
Chain of CHEK2, construct: Full length (O96017 whole entry, looked up): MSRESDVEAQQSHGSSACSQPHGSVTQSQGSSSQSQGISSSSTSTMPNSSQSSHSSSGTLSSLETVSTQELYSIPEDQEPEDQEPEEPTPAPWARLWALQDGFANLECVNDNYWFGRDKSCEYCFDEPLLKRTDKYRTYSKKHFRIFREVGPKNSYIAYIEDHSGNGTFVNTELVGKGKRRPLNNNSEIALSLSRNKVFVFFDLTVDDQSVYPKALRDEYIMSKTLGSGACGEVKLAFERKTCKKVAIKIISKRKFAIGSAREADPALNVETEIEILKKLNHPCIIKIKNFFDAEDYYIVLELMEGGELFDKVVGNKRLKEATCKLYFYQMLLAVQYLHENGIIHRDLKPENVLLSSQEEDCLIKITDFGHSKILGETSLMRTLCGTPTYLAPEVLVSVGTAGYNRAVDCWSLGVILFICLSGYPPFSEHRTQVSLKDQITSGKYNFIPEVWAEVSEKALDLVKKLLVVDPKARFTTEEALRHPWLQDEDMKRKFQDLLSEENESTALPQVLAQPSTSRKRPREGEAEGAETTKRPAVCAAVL
Chain of MAP4K3, construct: aa1-380 (Q8IVH8 1-380, looked up): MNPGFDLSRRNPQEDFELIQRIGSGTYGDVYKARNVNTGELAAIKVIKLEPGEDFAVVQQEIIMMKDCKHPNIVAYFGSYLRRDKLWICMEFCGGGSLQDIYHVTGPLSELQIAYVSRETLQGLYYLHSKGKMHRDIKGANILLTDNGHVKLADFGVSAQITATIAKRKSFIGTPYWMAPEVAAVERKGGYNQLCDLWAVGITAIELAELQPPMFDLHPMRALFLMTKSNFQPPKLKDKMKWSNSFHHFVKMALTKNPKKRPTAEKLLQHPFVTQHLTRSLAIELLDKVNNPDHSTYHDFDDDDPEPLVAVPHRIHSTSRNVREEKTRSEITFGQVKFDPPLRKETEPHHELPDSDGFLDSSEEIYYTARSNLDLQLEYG

Row | Substance | relative phosphorylation
1 | MOK, construct: aa1-343 (from UniProt Q9UQ07) | 0.328
2 | TTBK1, construct: Full length (from UniProt Q5TCY1) | 1.06
3 | CHEK2, construct: Full length (from UniProt O96017) | 0.672
4 | MAP4K3, construct: aa1-380 (from UniProt Q8IVH8) | 1.16
5 | CAMK1, construct: Full length (from UniProt Q14012) | 0.398
6 | MAP3K10, construct: aa1-449 (from UniProt Q02779) | 1.44
7 | EIF2AK1, construct: Full length (from UniProt Q9BQI3) | 0.752
8 | PKN3, construct: Full length (from UniProt Q6P5Z2) | 0.703

same assay, conditions: F fixed; at -3

Row | Substance | relative phosphorylation
9 | MOK, construct: aa1-343 (from UniProt Q9UQ07) | 0.314
10 | TTBK1, construct: Full length (from UniProt Q5TCY1) | 1.43
11 | CHEK2, construct: Full length (from UniProt O96017) | 0.197
12 | MAP4K3, construct: aa1-380 (from UniProt Q8IVH8) | 0.778
13 | CAMK1, construct: Full length (from UniProt Q14012) | 0.201
14 | MAP3K10, construct: aa1-449 (from UniProt Q02779) | 0.935
15 | EIF2AK1, construct: Full length (from UniProt Q9BQI3) | 0.955
16 | PKN3, construct: Full length (from UniProt Q6P5Z2) | 0.562

same assay, conditions: F fixed; at -4

Row | Substance | relative phosphorylation
17 | MOK, construct: aa1-343 (from UniProt Q9UQ07) | 0.739
18 | TTBK1, construct: Full length (from UniProt Q5TCY1) | 1.33
19 | CHEK2, construct: Full length (from UniProt O96017) | 0.895
20 | MAP4K3, construct: aa1-380 (from UniProt Q8IVH8) | 0.991
21 | CAMK1, construct: Full length (from UniProt Q14012) | 0.833
22 | MAP3K10, construct: aa1-449 (from UniProt Q02779) | 0.693
23 | EIF2AK1, construct: Full length (from UniProt Q9BQI3) | 1.15
24 | PKN3, construct: Full length (from UniProt Q6P5Z2) | 0.717

same assay, conditions: F fixed; at -5

Row | Substance | relative phosphorylation
25 | MOK, construct: aa1-343 (from UniProt Q9UQ07) | 1.02
26 | TTBK1, construct: Full length (from UniProt Q5TCY1) | 1.78
27 | CHEK2, construct: Full length (from UniProt O96017) | 1.42
28 | MAP4K3, construct: aa1-380 (from UniProt Q8IVH8) | 0.922
29 | CAMK1, construct: Full length (from UniProt Q14012) | 1.56
30 | MAP3K10, construct: aa1-449 (from UniProt Q02779) | 0.878
31 | EIF2AK1, construct: Full length (from UniProt Q9BQI3) | 1.31
32 | PKN3, construct: Full length (from UniProt Q6P5Z2) | 0.839

same assay, conditions: G fixed; at +1

Row | Substance | relative phosphorylation
33 | MOK, construct: aa1-343 (from UniProt Q9UQ07) | 1.23
34 | TTBK1, construct: Full length (from UniProt Q5TCY1) | 0.183
35 | CHEK2, construct: Full length (from UniProt O96017) | 0.741
36 | MAP4K3, construct: aa1-380 (from UniProt Q8IVH8) | 0.613
37 | CAMK1, construct: Full length (from UniProt Q14012) | 0.623
38 | MAP3K10, construct: aa1-449 (from UniProt Q02779) | 0.999
39 | EIF2AK1, construct: Full length (from UniProt Q9BQI3) | 1.21
40 | PKN3, construct: Full length (from UniProt Q6P5Z2) | 0.625

same assay, conditions: G fixed; at +2

Row | Substance | relative phosphorylation
41 | MOK, construct: aa1-343 (from UniProt Q9UQ07) | 1.51
42 | TTBK1, construct: Full length (from UniProt Q5TCY1) | 0.441
43 | CHEK2, construct: Full length (from UniProt O96017) | 0.784
44 | MAP4K3, construct: aa1-380 (from UniProt Q8IVH8) | 0.996
45 | CAMK1, construct: Full length (from UniProt Q14012) | 0.554
46 | MAP3K10, construct: aa1-449 (from UniProt Q02779) | 0.749
47 | EIF2AK1, construct: Full length (from UniProt Q9BQI3) | 0.923
48 | PKN3, construct: Full length (from UniProt Q6P5Z2) | 0.52

same assay, conditions: G fixed; at +3

Row | Substance | relative phosphorylation
49 | MOK, construct: aa1-343 (from UniProt Q9UQ07) | 1.52
50 | TTBK1, construct: Full length (from UniProt Q5TCY1) | 0.998
51 | CHEK2, construct: Full length (from UniProt O96017) | 0.818
52 | MAP4K3, construct: aa1-380 (from UniProt Q8IVH8) | 0.846
53 | CAMK1, construct: Full length (from UniProt Q14012) | 0.911
54 | MAP3K10, construct: aa1-449 (from UniProt Q02779) | 1.42
55 | EIF2AK1, construct: Full length (from UniProt Q9BQI3) | 1.09
56 | PKN3, construct: Full length (from UniProt Q6P5Z2) | 0.918

same assay, conditions: G fixed; at +4

Row | Substance | relative phosphorylation
57 | MOK, construct: aa1-343 (from UniProt Q9UQ07) | 1.34
58 | TTBK1, construct: Full length (from UniProt Q5TCY1) | 0.874
59 | CHEK2, construct: Full length (from UniProt O96017) | 0.987
60 | MAP4K3, construct: aa1-380 (from UniProt Q8IVH8) | 1.12
61 | CAMK1, construct: Full length (from UniProt Q14012) | 0.897
62 | MAP3K10, construct: aa1-449 (from UniProt Q02779) | 1.43
63 | EIF2AK1, construct: Full length (from UniProt Q9BQI3) | 0.945
64 | PKN3, construct: Full length (from UniProt Q6P5Z2) | 1.13

same assay, conditions: G fixed; at -1

Row | Substance | relative phosphorylation
65 | MOK, construct: aa1-343 (from UniProt Q9UQ07) | 1.36
66 | TTBK1, construct: Full length (from UniProt Q5TCY1) | 0.355
67 | CHEK2, construct: Full length (from UniProt O96017) | 0.707
68 | MAP4K3, construct: aa1-380 (from UniProt Q8IVH8) | 1.93
69 | CAMK1, construct: Full length (from UniProt Q14012) | 0.773
70 | MAP3K10, construct: aa1-449 (from UniProt Q02779) | 0.603
71 | EIF2AK1, construct: Full length (from UniProt Q9BQI3) | 0.469
72 | PKN3, construct: Full length (from UniProt Q6P5Z2) | 1.12

same assay, conditions: G fixed; at -2

Row | Substance | relative phosphorylation
73 | MOK, construct: aa1-343 (from UniProt Q9UQ07) | 0.824
74 | TTBK1, construct: Full length (from UniProt Q5TCY1) | 0.662
75 | CHEK2, construct: Full length (from UniProt O96017) | 0.679
76 | MAP4K3, construct: aa1-380 (from UniProt Q8IVH8) | 1.43
77 | CAMK1, construct: Full length (from UniProt Q14012) | 0.607
78 | MAP3K10, construct: aa1-449 (from UniProt Q02779) | 0.911
79 | EIF2AK1, construct: Full length (from UniProt Q9BQI3) | 0.846
80 | PKN3, construct: Full length (from UniProt Q6P5Z2) | 1.21

same assay, conditions: G fixed; at -3

Row | Substance | relative phosphorylation
81 | MOK, construct: aa1-343 (from UniProt Q9UQ07) | 0.645
82 | TTBK1, construct: Full length (from UniProt Q5TCY1) | 0.918
83 | CHEK2, construct: Full length (from UniProt O96017) | 0.275
84 | MAP4K3, construct: aa1-380 (from UniProt Q8IVH8) | 1.51
85 | CAMK1, construct: Full length (from UniProt Q14012) | 0.218
86 | MAP3K10, construct: aa1-449 (from UniProt Q02779) | 1.28
